Measurements as given in patent US20250011368A1, “DLL3 TARGETING PEPTIDES AND CONSTRUCTS THEREOF” (MARIANA ONCOLOGY INC., priority 2023, published 2025).
Numbered stars: 1 amine (or outer) side, 2 acyl side, 3 side chain; on linkers, the order of the positions; unused ones are H or OH. Bridge positions count the residues as written; N and C are the ends. Square brackets hold non-standard residues; d marks the D form. * marks the point of attachment. Ala(piperidin-4-yl) = O=C([C@H](CC1CCN([*:3])CC1)N[*:1])[*:2]; DOTA = O=C(O)CN1CCN(CC(=O)O)CCN(CC(=O)*)CCN(CC(=O)O)CC1; Trp(5-F) = N[C@@H](Cc1c[nH]c2ccc(F)cc12)C(=O)O; Trp(7-aza) = N[C@@H](Cc1c[nH]c2ncccc12)C(=O)O; Pro(trans-4-F) = O=C(O)[C@@H]1C[C@@H](F)CN1; 2Nal = N[C@@H](Cc1ccc2ccccc2c1)C(=O)O; Cha = N[C@@H](CC1CCCCC1)C(=O)O

Columns and labels:
[1] = target: T1, DLL3 on SHP-77 cells (human, UniProt Q9NYJ7 27-618); test: 177Lu-peptide bound to SHP-77 cells, gamma counting; letter grade, key in paragraph 629
T1 construct: SHP-77 cells are human-derived, non-engineered SCLC cells
T1 sequence: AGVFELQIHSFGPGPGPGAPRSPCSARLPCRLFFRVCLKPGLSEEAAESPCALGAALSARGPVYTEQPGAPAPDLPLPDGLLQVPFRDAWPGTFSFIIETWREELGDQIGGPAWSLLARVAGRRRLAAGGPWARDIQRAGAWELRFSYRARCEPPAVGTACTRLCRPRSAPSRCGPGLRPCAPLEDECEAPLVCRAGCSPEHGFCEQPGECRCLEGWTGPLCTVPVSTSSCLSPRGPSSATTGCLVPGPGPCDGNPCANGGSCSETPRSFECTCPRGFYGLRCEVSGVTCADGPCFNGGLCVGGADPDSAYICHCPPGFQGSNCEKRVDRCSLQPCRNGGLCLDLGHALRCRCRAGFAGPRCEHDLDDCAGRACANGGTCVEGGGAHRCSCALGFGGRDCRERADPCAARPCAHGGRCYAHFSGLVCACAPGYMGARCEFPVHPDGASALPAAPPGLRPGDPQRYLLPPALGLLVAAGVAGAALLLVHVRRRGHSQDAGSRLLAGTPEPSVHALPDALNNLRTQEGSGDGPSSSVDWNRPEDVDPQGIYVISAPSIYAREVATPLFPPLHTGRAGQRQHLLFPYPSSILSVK
Description: The study was conducted using SHP-77, CT26.WT, and CT26.DLL3 cells (Table 7) Adherent cell studies: The cells were cultured in appropriate culture media (20 mL) in tissue culture treated T150 flasks at 37° C. and 5% CO2. Adherent cells were detached (60-70% confluent) using 5 mL Versene at 37° C. for 3 minutes. After confirming the viability using countess and count of detached cells using Trypan blue, the cells were centrifuged at 4° C. for 5 minutes (1,000 rpm). The cell pellet obtained was washed once with PBS and resuspended in 1% PBSA to obtain the desired cell concentration (5-25 million cells/mL).
Total uptake: Cells were incubated with 300 μL (0.8 μCi) of the incubation buffer (containing radiolabeled peptide [¹⁷⁷Lu] Lu-test peptide) for 1 hour at 37° C. (Table 8). Post incubation, the cells were pelleted and washed 2 times using cold PBS+1% BSA. The supernatant and washes were combined and counted together as “unbound fraction” in a gamma counter. The cells were then resuspended in 300 μL of 1% PBS+1% BSA and counted in the gamma counter as “bound fraction”.

[2] = target: DLL3 on CT26.DLL3 cells (Homo sapiens (Human)) (UniProt Q9NYJ7); test: 177Lu-peptide bound to CT26.DLL3 cells, gamma counting; letter grade, key in paragraph 629
[3] = target: T2, Biotinylated human DLL3 (Delta Like Canonical Notch Ligand 3) (human, UniProt Q9NYJ7 27-492, limits assumed, biotinylated (site not stated)); test: SPR; letter grade, key in paragraph 614; lower limit of grade B
T2 construct: also called Delta-like protein 3; biotinylated target ligand human DLL3
T2 sequence: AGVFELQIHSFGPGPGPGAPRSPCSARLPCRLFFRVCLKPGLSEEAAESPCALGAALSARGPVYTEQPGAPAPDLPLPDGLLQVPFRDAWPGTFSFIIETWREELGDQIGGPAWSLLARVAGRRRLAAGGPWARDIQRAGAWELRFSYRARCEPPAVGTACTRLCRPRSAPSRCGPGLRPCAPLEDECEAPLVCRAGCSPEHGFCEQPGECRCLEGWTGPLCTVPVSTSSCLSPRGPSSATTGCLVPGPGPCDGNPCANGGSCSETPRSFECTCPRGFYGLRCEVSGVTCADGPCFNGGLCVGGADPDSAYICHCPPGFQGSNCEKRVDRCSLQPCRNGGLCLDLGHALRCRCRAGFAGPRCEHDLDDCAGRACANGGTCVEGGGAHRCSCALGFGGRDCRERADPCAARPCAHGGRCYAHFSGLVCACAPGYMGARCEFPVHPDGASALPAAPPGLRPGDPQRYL
Description: (§1) Biotinylated target ligand human DLL3 was immobilized on a streptavidin sensor chip. A reference surface was set up for nonspecific binding and refractive index changes. For analysis of the kinetics of interactions, varying concentrations of samples were injected at a flow rate of 100 μL/minute using running buffer containing 20 mM phosphate buffer with 2.7 mM KCl, 137 mM NaCl, 0.05% Surfactant P20 and 2% DMSO. Sensorgram curves were fitted with 1:1 binding model, and affinity and kinetic parameters were obtained using Biacore Insight evaluation 4.0. software.

[4] = target: T2, Biotinylated human DLL3 (Delta Like …); test: SPR; letter grade, key in paragraph 614; upper limit of grade B
Description: as §1

[5] = target: Biotinylated human DLL3 (Delta Like Canonical Notch Ligand 3) (human) (UniProt Q9NYJ7); test: SPR; letter grade, key in paragraph 614
[6] = target: T2, Biotinylated human DLL3 (Delta Like …); test: SPR; letter grade, key in paragraph 614
Description: as §1

B1: [177Lu]Lu-labelled Cpd No. 326 (peptide)
peptide: Ac-WTIC[Ala(piperidin-4-yl)]N[2Nal]KDCWP[dK](DOTA)-NH2
modifications: disulfide 4-10; not fully specified (residue 8); also: 177Lu chelated in DOTA
B1 was tested, and the % Binding [1] was < 25% and the % Binding [2] was < 25%.

B2: [177Lu]Lu-labelled Cpd No. 245 (peptide)
peptide: Ac-[Trp(5-F)]T[Cha]CNN[2Nal]HDC[Trp(7-aza)][Pro(trans-4-F)][dK](DOTA)-NH2
modifications: disulfide 4-10; also: 177Lu complexed in the DOTA chelator
B2 was tested, and the % Binding [2] was < 25%.

B3: Cpd No. 23 (peptide)
peptide: Ac-WTICNNWHDCWP[dK](DOTA)-NH2
modifications: disulfide 4-10
With B3 the Kd [3] was > 1 nM and the Kd [4] was ≤ 10 nM.

B4: Cpd No. 245 (peptide)
peptide: Ac-[Trp(5-F)]T[Cha]CNN[2Nal]HDC[Trp(7-aza)][Pro(trans-4-F)][dK](DOTA)-NH2
modifications: disulfide 4-10
For B4, the Kd [5] was < 1 nM.

B5: Cpd No. 451 (peptide)
peptide: Ac-WTICKN[2Nal]HDCWP[dK](DOTA)-NH2
modifications: disulfide 4-10
SMILES: CC[C@H](C)[C@H](NC(=O)[C@@H](NC(=O)[C@H](Cc1c[nH]c2ccccc12)NC(C)=O)[C@@H](C)O)C(=O)N[C@H]1CSSC[C@@H](C(=O)N[C@@H](Cc2c[nH]c3ccccc23)C(=O)N2CCC[C@H]2C(=O)N[C@H](CCCCNC(=O)CN2CCN(CC(=O)O)CCN(CC(=O)O)CCN(CC(=O)O)CC2)C(N)=O)NC(=O)[C@H](CC(=O)O)NC(=O)[C@H](Cc2c[nH]cn2)NC(=O)[C@H](Cc2ccc3ccccc3c2)NC(=O)[C@H](CC(N)=O)NC(=O)[C@H](CCCCN)NC1=O
With B5 the Kd [6] was ≤ 1 nM.
